B1: FAM83G (protein, UniProt A6ND36 2-823, looked up)
Protein FAM83G: AFSQVQCLDDNHVNWRSSESKPEFFYSEEQRLALEALVARGRDAFYEVLKRENIRDFLSELELKRILETIEVYDPGSEDPRGTGPSQGPEDNGVGDGEEASGADGVPIEAEPLPSLEYWPQKSDRSIPQLDLGWPDTIAYRGVTRASVYMQPPIDGQAHIKEVVRKMISQAQKVIAVVMDMFTDVDIFKDLLDAGFKRKVAVYIIVDESNVKYFLHMCERACMHLGHLKNLRVRSSGGTEFFTRSATKFKGALAQKFMFVDGDRAVCGSYSFTWSAARTDRNVISVLSGQVVEMFDRQFQELYLMSHSVSLKGIPMEKEPEPEPIVLPSVVPLVPAGTVAKKLVNPKYALVKAKSVDEIAKISSEKQEAKKPLGLKGPALAEHPGELPELLPPIHPGLLHLERANMFEYLPTWVEPDPEPGSDILGYINIIDPNIWNPQPSQMNRIKIRDTSQASAQHQLWKQSQDSRPRPEPCPPPEPSAPQDGVPAENGLPQGDPEPLPPVPKPRTVPVADVLARDSSDIGWVLELPKEEAPQNGTDHRLPRMAGPGHAPLQRQLSVTQDDPESLGVGLPNGLDGVEEEDDDDYVTLSDQDSHSGSSGRGPGPRRPSVASSVSEEYFEVREHSVPLRRRHSEQVANGPTPPPRRQLSAPHITRGTFVGPQGGSPWAQSRGREEADALKRMQAQRSTDKEAQGQQFHHHRVPASGTRDKDGFPGPPRYRSAADSVQSSTRNAGPAMAGPHHWQAKGGQVPRLLPDPGSPRLAQNARPMTDGRATEEHPSPFGIPYSKLSQSKHLKARTGGSQWASSDSKRRAQAPRDRKDP
B2: MTMR3 (protein, UniProt Q13615 1-1198, looked up)
Phosphatidylinositol-3,5-bisph …: MDEETRHSLECIQANQIFPRKQLIREDENLQVPFLELHGESTEFVGRAEDAIIALSNYRLHIKFKESLVNVPLQLIESVECRDIFQLHLTCKDCKVIRCQFSTFEQCQEWLKRLNNAIRPPAKIEDLFSFAYHAWCMEVYASEKEQHGDLCRPGEHVTSRFKNEVERMGFDMNNAWRISNINEKYKLCGSYPQELIVPAWITDKELESVSSFRSWKRIPAVIYRHQSNGAVIARCGQPEVSWWGWRNADDEHLVQSVAKACASDSRSSGSKLSTRNTSRDFPNGGDLSDVEFDSSLSNASGAESLAIQPQKLLILDARSYAAAVANRAKGGGCECPEYYPNCEVVFMGMANIHSIRRSFQSLRLLCTQMPDPGNWLSALESTKWLHHLSVLLKSALLVVHAVDQDQRPVLVHCSDGWDRTPQIVALAKLLLDPYYRTIEGFQVLVEMEWLDFGHKFADRCGHGENSDDLNERCPVFLQWLDCVHQLQRQFPCSFEFNEAFLVKLVQHTYSCLFGTFLCNNAKERGEKHTQERTCSVWSLLRAGNKAFKNLLYSSQSEAVLYPVCHVRNLMLWSAVYLPCPSPTTPVDDSCAPYPAPGTSPDDPPLSRLPKTRSYDNLTTACDNTVPLASRRCSDPSLNEKWQEHRRSLELSSLAGPGEDPLSADSLGKPTRVPGGAELSVAAGVAEGQMENILQEATKEESGVEEPAHRAGIEIQEGKEDPLLEKESRRKTPEASAIGLHQDPELGDAALRSHLDMSWPLFSQGISEQQSGLSVLLSSLQVPPRGEDSLEVPVEQFRIEEIAEGREEAVLPIPVDAKVGYGTSQSCSLLPSQVPFETRGPNVDSSTDMLVEDKVKSVSGPQGHHRSCLVNSGKDRLPQTMEPSPSETSLVERPQVGSVVHRTSLGSTLSLTRSPCALPLAECKEGLVCNGAPETENRASEQPPGLSTLQMYPTPNGHCANGEAGRSKDSLSRQLSAMSCSSAHLHSRNLHHKWLHSHSGRPSATSSPDQPSRSHLDDDGMSVYTDTIQQRLRQIESGHQQEVETLKKQVQELKSRLESQYLTSSLHFNGDFGDEVTSIPDSESNLDQNCLSRCSTEIFSEASWEQVDKQDTEMTRWLPDHLAAHCYACDSAFWLASRKHHCRNCGNVFCSSCCNQKVPVPSQQLFEPSRVCKSCYSSLHPTSSSIDLELDKPIAATSN
B3: TP53BP2 (protein, UniProt Q13625 1-1128, looked up)
Apoptosis-stimulating of p53 …: MMPMFLTVYLSNNEQHFTEVPVTPETICRDVVDLCKEPGESDCHLAEVWCGSERPVADNERMFDVLQRFGSQRNEVRFFLRHERPPGRDIVSGPRSQDPSLKRNGVKVPGEYRRKENGVNSPRMDLTLAELQEMASRQQQQIEAQQQLLATKEQRLKFLKQQDQRQQQQVAEQEKLKRLKEIAENQEAKLKKVRALKGHVEQKRLSNGKLVEEIEQMNNLFQQKQRELVLAVSKVEELTRQLEMLKNGRIDSHHDNQSAVAELDRLYKELQLRNKLNQEQNAKLQQQRECLNKRNSEVAVMDKRVNELRDRLWKKKAALQQKENLPVSSDGNLPQQAASAPSRVAAVGPYIQSSTMPRMPSRPELLVKPALPDGSLVIQASEGPMKIQTLPNMRSGAASQTKGSKIHPVGPDWSPSNADLFPSQGSASVPQSTGNALDQVDDGEVPLREKEKKVRPFSMFDAVDQSNAPPSFGTLRKNQSSEDILRDAQVANKNVAKVPPPVPTKPKQINLPYFGQTNQPPSDIKPDGSSQQLSTVVPSMGTKPKPAGQQPRVLLSPSIPSVGQDQTLSPGSKQESPPAAAVRPFTPQPSKDTLLPPFRKPQTVAASSIYSMYTQQQAPGKNFQQAVQSALTKTHTRGPHFSSVYGKPVIAAAQNQQQHPENIYSNSQGKPGSPEPETEPVSSVQENHENERIPRPLSPTKLLPFLSNPYRNQSDADLEALRKKLSNAPRPLKKRSSITEPEGPNGPNIQKLLYQRTTIAAMETISVPSYPSKSASVTASSESPVEIQNPYLHVEPEKEVVSLVPESLSPEDVGNASTENSDMPAPSPGLDYEPEGVPDNSPNLQNNPEEPNPEAPHVLDVYLEEYPPYPPPPYPSGEPEGPGEDSVSMRPPEITGQVSLPPGKRTNLRKTGSERIAHGMRVKFNPLALLLDSSLEGEFDLVQRIIYEVDDPSLPNDEGITALHNAVCAGHTEIVKFLVQFGVNVNAADSDGWTPLHCAASCNNVQVCKFLVESGAAVFAMTYSDMQTAADKCEEMEEGYTQCSQFLYGVQEKMGIMNKGVIYALWDYEPQNDDELPMKEGDCMTIIHREDEDEIEWWWARLNDKEGYVPRNLLGLYPRIKPRQRSLA
B4: CDC25B (protein, UniProt P30305 1-580, looked up)
M-phase inducer phosphatase 2: MEVPQPEPAPGSALSPAGVCGGAQRPGHLPGLLLGSHGLLGSPVRAAASSPVTTLTQTMHDLAGLGSETPKSQVGTLLFRSRSRLTHLSLSRRASESSLSSESSESSDAGLCMDSPSPMDPHMAEQTFEQAIQAASRIIRNEQFAIRRFQSMPVRLLGHSPVLRNITNSQAPDGRRKSEAGSGAASSSGEDKENDGFVFKMPWKPTHPSSTHALAEWASRREAFAQRPSSAPDLMCLSPDRKMEVEELSPLALGRFSLTPAEGDTEEDDGFVDILESDLKDDDAVPPGMESLISAPLVKTLEKEEEKDLVMYSKCQRLFRSPSMPCSVIRPILKRLERPQDRDTPVQNKRRRSVTPPEEQQEAEEPKARVLRSKSLCHDEIENLLDSDHRELIGDYSKAFLLQTVDGKHQDLKYISPETMVALLTGKFSNIVDKFVIVDCRYPYEYEGGHIKTAVNLPLERDAESFLLKSPIAPCSLDKRVILIFHCEFSSERGPRMCRFIRERDRAVNDYPSLYYPEMYILKGGYKEFFPQHPNFCEPQDYRPMNHEAFKDELKTFRLKTRSWAGERSRRELCSRLQDQ
B5: NEDD4L (protein, UniProt Q96PU5 2-975, looked up)
E3 ubiquitin-protein ligase …: ATGLGEPVYGLSEDEGESRILRVKVVSGIDLAKKDIFGASDPYVKLSLYVADENRELALVQTKTIKKTLNPKWNEEFYFRVNPSNHRLLFEVFDENRLTRDDFLGQVDVPLSHLPTEDPTMERPYTFKDFLLRPRSHKSRVKGFLRLKMAYMPKNGGQDEENSDQRDDMEHGWEVVDSNDSASQHQEELPPPPLPPGWEEKVDNLGRTYYVNHNNRTTQWHRPSLMDVSSESDNNIRQINQEAAHRRFRSRRHISEDLEPEPSEGGDVPEPWETISEEVNIAGDSLGLALPPPPASPGSRTSPQELSEELSRRLQITPDSNGEQFSSLIQREPSSRLRSCSVTDAVAEQGHLPPPSAPAGRARSSTVTGGEEPTPSVAYVHTTPGLPSGWEERKDAKGRTYYVNHNNRTTTWTRPIMQLAEDGASGSATNSNNHLIEPQIRRPRSLSSPTVTLSAPLEGAKDSPVRRAVKDTLSNPQSPQPSPYNSPKPQHKVTQSFLPPGWEMRIAPNGRPFFIDHNTKTTTWEDPRLKFPVHMRSKTSLNPNDLGPLPPGWEERIHLDGRTFYIDHNSKITQWEDPRLQNPAITGPAVPYSREFKQKYDYFRKKLKKPADIPNRFEMKLHRNNIFEESYRRIMSVKRPDVLKARLWIEFESEKGLDYGGVAREWFFLLSKEMFNPYYGLFEYSATDNYTLQINPNSGLCNEDHLSYFTFIGRVAGLAVFHGKLLDGFFIRPFYKMMLGKQITLNDMESVDSEYYNSLKWILENDPTELDLMFCIDEENFGQTYQVDLKPNGSEIMVTNENKREYIDLVIQWRFVNRVQKQMNAFLEGFTELLPIDLIKIFDENELELLMCGLGDVDVNDWRQHSIYKNGYCPNHPVIQWFWKAVLLMDAEKRIRLLQFVTGTSRVPMNGFAELYGSNGPQLFTIEQWGSPEKLPRAHTCFNRLDLPPYETFEDLREKLLMAVENAQGFEGVD
B6: PPP1R3D (protein, UniProt O95685 1-299, looked up)
Protein phosphatase 1 …: MSRGPSSAVLPSALGSRKLGPRSLSCLSDLDGGVALEPRACRPPGSPGRAPPPTPAPSGCDPRLRPIILRRARSLPSSPERRQKAAGAPGAACRPGCSQKLRVRFADALGLELAQVKVFNAGDDPSVPLHVLSRLAINSDLCCSSQDLEFTLHCLVPDFPPPVEAADFGERLQRQLVCLERVTCSDLGISGTVRVCNVAFEKQVAVRYTFSGWRSTHEAVARWRGPAGPEGTEDVFTFGFPVPPFLLELGSRVHFAVRYQVAGAEYWDNNDHRDYSLTCRNHALHMPRGECEESWIHFI

What follows are molecules tested on GFP-14-3-3β and its binding proteins (assay: GFP-14-3-3β co-IP with LC-MS/MS label-free quantification, untreated versus PP1c-treated). Conditions: GFP-14-3-3β co-IP, PP1vsUntrted, Perseus raw output, LFQ intensity difference.
Set-up: species or system human

Row | Molecule | Difference
1 | B1 | -4.783

Same assay, conditions: pairwise comparison PP1 vs untreated, student's t-test; 3 replicates each; LC-MS/MS label-free quantification

Row | Molecule | Difference (log2), PP1 vs untreated [log2]
2 | B2 | -4.593
3 | B3 | -4.694
4 | B1 | -4.783
5 | B4 | -5.046
6 | B5 | -5.048
7 | B6 | -4.778

The molecules below were run on GFP-14-3-3β (assay: GFP-14-3-3β co-IP with LC-MS/MS, untreated GFP-14-3-3β versus GFP control (14-3-3 interactome)). Conditions: pairwise comparison untreated GFP-14-3-3β vs GFP, student's t-test; 3 replicates each; LC-MS/MS label-free quantification.
Type: binding, human

Row | Molecule | Difference (log2), untreated vs GFP [log2]
8 | B2 | 4.385
9 | B3 | 3.807
10 | B1 | 4.695
11 | B4 | 4.101
12 | B5 | 4.407
13 | B6 | 3.78

— PMC7367873, “Dissecting the sequence determinants for dephosphorylation by the catalytic subunits of phosphatases PP1 and PP2A” (Nature Communications, 2020)
